Test results from publication PMC10397247.

Columns and labels:
Assay in all cases: two-hybrid library CCNG1;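 note: natural log of median RNA to DNA barcode read ratio; higher means stronger binding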
[1] = target: T1, 4H3381-bH
T1 chain: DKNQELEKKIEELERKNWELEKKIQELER

[2] = target: T2, 4H730-bA
T2 chain: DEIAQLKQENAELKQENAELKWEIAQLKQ

[3] = target: T3, 4H796-bA
T3 chain: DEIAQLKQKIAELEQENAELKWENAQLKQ

[4] = target: T4, 4H949-bA
T4 chain: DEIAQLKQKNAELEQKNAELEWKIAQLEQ

[5] = target: T5, 4H3497-bA
T5 chain: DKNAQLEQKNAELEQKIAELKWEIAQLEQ

[6] = target: T6, P11A
T6 chain: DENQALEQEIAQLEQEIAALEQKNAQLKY

[7] = target: T7, 4H3364-bA
T7 chain: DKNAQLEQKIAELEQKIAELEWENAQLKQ

[8] = target: T8, 4H3041-bA
T8 chain: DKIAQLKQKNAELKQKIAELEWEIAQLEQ

[9] = target: T9, 4H2931-bA
T9 chain: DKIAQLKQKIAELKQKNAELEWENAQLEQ

[10] = target: T10, 4H56-bA
T10 chain: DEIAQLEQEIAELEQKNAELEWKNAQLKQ

[11] = target: T11, 4H3381-bA
T11 chain: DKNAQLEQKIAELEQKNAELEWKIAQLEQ

[12] = target: T12, 4H932-bA
T12 chain: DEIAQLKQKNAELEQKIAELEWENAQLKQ

[13] = target: T13, 4H349-bA
T13 chain: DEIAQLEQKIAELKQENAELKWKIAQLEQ

[14] = target: T14, 4H3297-bA
T14 chain: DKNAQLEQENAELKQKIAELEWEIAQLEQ

DKIAQLKQKIAELKQKNAELEWENAQLEQ [4H2931-bA]
interaction score [1]: -0.208 | interaction score [2]: -1.14 | interaction score [3]: -0.693 | interaction score [4]: -1.37 | interaction score [5]: -1.04 | interaction score [6]: 1.31 | interaction score [7]: -1.11 | interaction score [8]: -0.32 | interaction score [9]: -0.604 | interaction score [10]: 0.684 | interaction score [11]: -1.36 | interaction score [12]: -1.36 | interaction score [13]: -1.08 | interaction score [14]: -0.644
